The source of these data is patent CN1709911A.

Assay [1] has as its target Raji肿瘤细胞核抗原 (Raji肿瘤细胞核提取物 / 固定Raji细胞). The experiment in a line: antigen binding activity, table 2, against rhTNT-IL2 (IgG1) as control; method not described.
Assay [2] has the same target. The experiment in a line: antigen binding activity, table 2; this molecule is the reference; method not described.
Assay [3] has the same target. The experiment in a line: flow cytometry on paraformaldehyde-fixed Raji cells; 5 ul of 1 mg/ml, anti-human IgG-FITC; first of three values.
Assay [4] shares this target. The experiment in a line: flow cytometry on paraformaldehyde-fixed Raji cells; 5 ul of 1 mg/ml, anti-human IgG-FITC; third of three values.
Assay [5] shares this target. The experiment in a line: flow cytometry on paraformaldehyde-fixed Raji cells; 5 ul of 1 mg/ml, anti-human IgG-FITC; second of three values. In general terms: Flow cytometry measures light scatter and fluorescence of single cells or particles in a stream.

Regarding “肿瘤坏死治疗单抗-白细胞介素2融合蛋白, IgG1重链恒定区, IL2(Q22-C58) (antibody)”, the 融合蛋白抗原结合活性 in assay [1] turned out to be 100%.

On to “肿瘤坏死治疗单抗-白细胞介素2融合蛋白, IgG3重链恒定区, 全长IL2 (antibody)”, for which the 融合蛋白抗原结合活性 in assay [1] is 100%.

In assay [1], “肿瘤坏死治疗单抗-白细胞介素2融合蛋白, IgG2重链恒定区, 全长IL2 (antibody)” returned a 融合蛋白抗原结合活性 of 100%.

For “rhTNT-IL2融合蛋白 (重组人肿瘤坏死治疗单抗-白细胞介素2融合蛋白, IgG1, 连接肽AAAGGGS, 全长IL2) (antibody)”, the 融合蛋白抗原结合活性 in assay [2] worked out at 100%. The 特异结合活性 was found to be 98.2% in assay [3], 98.6% in assay [4] and 98.3% in assay [5].

“肿瘤坏死治疗单抗-白细胞介素2融合蛋白, IgG4重链恒定区, IL2(Q22-C58) (antibody)”: in assay [1], the 融合蛋白抗原结合活性 stood at 100%.

Consider “肿瘤坏死治疗单抗-白细胞介素2融合蛋白, IgG2重链恒定区, IL2(Q22-C58) (antibody)”, for which the 融合蛋白抗原结合活性 in assay [1] is 100%.

On to “肿瘤坏死治疗单抗-白细胞介素2融合蛋白, IgG4重链恒定区, 全长IL2 (antibody)”, for which the 融合蛋白抗原结合活性 in assay [1] came out at 100%.

For the substance “肿瘤坏死治疗单抗-白细胞介素2融合蛋白, IgG3重链恒定区, IL2(Q22-C58) (antibody)”, the 融合蛋白抗原结合活性 in assay [1] is 100%.
